US10287521B2, “Enzymatic removal of steryl glycosides” (KECLON S.A., priority 2012, dated 2019)

How the values were obtained:
[1] = Steryl glycoside hydrolysis in crude biodiesel (Example 6); type: biochemical; conditions: about 70 ppm steryl glycosides, 8 mg enzyme, 80° C., in 3 h
[2] = Steryl glycoside hydrolysis in distilled biodiesel/water mixture (Example 5); type: biochemical
Experimental: Steryl glycosidase activity is measured as follows: • a) Prepare a stock solution of steryl glycoside by dissolving 10 milligrams (mg) of steryl glycoside in 1 milliliter (ml) of a 3:1 mixture of tetrahydrofuran:water. • b) Add the steryl glycoside to a final concentration of 100 microgram per milliliter (μg/ml) in 1 ml of a reaction mixture containing 50 millimolar (mM) Phosphate buffer pH 6.5 and 5 μg of steryl glycosidase in an Eppendorf tube. • c) Place the reaction mixture on a shaker incubator and incubate at 80° C. for 4 h. • d) Extract the reaction mixture with 1 ml of ethyl acetate and evaporate to dryness under vacuum. • e) Re-dissolve the sample in 10 microliter (μl) of ethyl acetate • f) Analyze by thin layer chromatography (TLC) the presence of free sterols, generated as a result of steryl glycoside hydrolysis after the enzymatic treatment, using Hexane:Methanol 85:15 as running buffer and develop with ρ-anisaldehide • d) Alternatively, analyze 50 μl sample of the reaction mixture for the presence of glucose using an assay based on the Hexokinase/Glucose 6-P-dehydrogenase method: the glucose generated by steryl glycoside hydrolisis is converted by Hexokinase (or Glucokinase) into glucose 6-phosphate. Glucose 6-phosphate is further oxidized by Glucose 6-P dehydrogenase, simultaneously reducing NADP+ to NADPH. The NADPH generated is detected by fluorescence (λex: 338 nm, λem: 461 nm) and allows detection of glucose levels below 1 ppm. The assay can be adapted to microplates scale and detected in a Synergy microplate reader.
The following is an example of how to use a steryl glycosidase to remove steryl glycosides from a biodiesel mixture: • a) A 42.5 ml distilled biodiesel sample containing 100 ppm of steryl glycosides is mixed with 7.5 ml of a water solution containing 50 mM Phosphate buffer pH 6.5 and 300 μg of steryl glycosidase. […]

Molecule | steryl glycoside hydrolysis in crude biodiesel [1] | steryl glycoside hydrolysis compared with LacS ([2]; Bio/water+ADMUL emulsions, data not shown) | steryl glycoside hydrolysis ([2]; without the addition of any emulsifier, in 3 h, 80° C.) | steryl glycoside hydrolysis, dependence on emulsifier ([2]; distilled biodiesel/water, 80° C., with or without 5% ADMUL emulsifier)
TL: steryl glycosidase TL from T. litoralis (SEQ ID NO.: 17) (protein, listed as Thermococcus litoralis) FPEKFLFGTSTAAHQVEGDNRWNDWWYYEEIGKLPYKSGKACNHWGLYREDIELMAQLGYNAYRFSIEWSRLFPEEGKFNEDAFNRYREIIELLLEKGITPNVTLHHFTSPLWFMRKGGFLKEENLKYWEKYVDKAAELLKGVKLVATFNEPMVYVMMGYLTAYWPPFVKSPFKAFKVAANLLKAHAMAYDILHGNFDVGIVKNIPIMLPASNREKDIKAAQKADNLFNWNFLDAIWSGKYKGAFGTYKTPESDVDFIGINYYTASEVRHSWNPLKFFFDAKLADLSERKTDMGWSVYPKGIYEAIAKVSRYGKPMYITENGIATLEDEWRIEFIIQHLQYVHKALNDGFDLRGYFYWSFMDNYEWAEGFRPRFGLVEVDYTTFERRPRKSGYVYGEIAREKKIKDELLAKYGLPEL | could completely hydrolize steryl glycosides | higher and faster hydrolysis | ~100% | 
LacS: steryl glycosidase LacS from S. solfataricus (SEQ ID NO.: 2) (protein, listed as Sulfolobus solfataricus) MYSFPNSFRFGWSQAGFQSEMGTPGSEDPNTDWYKWVHDPENMAAGLVSGDLPENGPGYWGNYKTFHDNAQKMGLKIARLNVEWSRIFPNPLPRPQNFDESKQDVTEVEINENELKRLDEYANKDALNHYREIFKDLKSRGLYFILNMYHWPLPLWLHDPIRVRRGDFTGPSGWLSTRTVYEFARFSAYIAWKFDDLVDEYSTMNEPNVVGGLGYVGVKSGFPPGYLSFELSRRAMYNIIQAHARAYDGIKSVSKKPVGIIYANSSFQPLTDKDMEAVEMAENDNRWWFFDAIIRGEITRGNEKIVRDDLKGRLDWIGVNYYTRTVVKRTEKGYVSLGGYGHGCERNSVSLAGLPTSDFGWEFFPEGLYDVLTKYWNRYHLYMYVTENGIADDADYQRPYYLVSHVYQVHRAINSGADVRGYLHWSLADNYEWASGFSMRFGLLKVDYNTKRLYWRPSALVYREIATNGAITDEIEHLNSVPPVKPLRH |  |  |  | could only exhibit steryl glycoside hydrolisis when reactions were performed in the presence of ADMUL™
